Assay: yeast display, Sf9 membrane polyspecificity reagent, FACS + sequencing; frameworks hold sequencing errors
In short: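 A synthetic nanobody library was expressed on Saccharomyces cerevisiae BJ5465 by galactose induction for 36–48 hours. The library was stained for 1 hour at 4 °C with 10% biotinylated, detergent-solubilized Sf9 membrane reagent and enriched with streptavidin microbeads before FACS. Low and high (top ~1%) gates were set on anti-HA fluorescence for expression and streptavidin fluorescence for reagent binding, and each polyreactivity label reflects the gate of origin.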

## QVQLVESGGGLVQAGGSLRLSCAASGFTLQVYDMGWYRQAPGKERELVADISGSGDSTNYADSVKGRFTISRDNAKNTVYLQMNSLKPEDNAVYYCAAEVRGGYYGYDYWGQGTQVTVSS
  polyreactivity (PSR sort gate): low polyreactivity

## QVQLVESGGGLVQAGGSLRLSCAASGSIFAYYAMGWYRQAPGKERELVAAISYSGDGTYYADSVKGRFTISRDNAKNTVYFQMNSLKPEDTAVYYCAADWDGYFYKSNWDYNYWGQGTQVTVSS
  polyreactivity (PSR sort gate): low polyreactivity

## QVQLVESGGCLVQAGGSLRLTCAASGSTFGYEGRGWYRQAPGKERELVASIDSRCDSTYADSVKGRFTISRDNAKNTVYLQMNSLKPEDTAVYYCAADSWYTWFDSWGQGTQVTVSS
  polyreactivity (PSR sort gate): low polyreactivity

## QVQLVESGGGLVQAGGSLRLSCAASGFTFDVYALGWYRQAPGKERELVAAISARGGSTCYADSVKGRFTISRDNAKNTVYLQMHSLKPEDTAVYYCNTYPKKKRPNEYDYWGQGTQVTVSS
  polyreactivity (PSR sort gate): high polyreactivity

## QVQLVESGGGLVQAGGSLRLSCAASGSIFLHNAMGWYRQAPGKERELVAVITSRGGSTYYADSVKGRLTISRDNAKNTVYLQMKSLKPEDTAVYYCAAPAYHKRTSRGDYWGQGTQVTVSS
  polyreactivity (PSR sort gate): low polyreactivity

## KVQLVESGGGLVQAGGSLLLSCAASGRTFTYNAIGWYRQARGTERELVAVITNSGGSTYYADSVKGRYTISRDNAKNTVYLQRNRLKPEDTAVYYCAADYFSRYWYRFYYWGQGTQVTVSS
  polyreactivity (PSR sort gate): high polyreactivity

## QVQLVESGGGLVQAGGSLRLSCAASGRILSWYAMGWYRQAPGKVRELVAAIDSGGRTNYADSVKGRFTISRDNAKNTVYLQMNSLKPEDTAVYYCAKEGYWPRYWERYDYWGQGTQVTLSS
  polyreactivity (PSR sort gate): low polyreactivity

## QVQLAESGGGLVQAGGSLRLSSAASGRTIGFNGMGWYRQAPGKERELVAAITWNGDSTYADSVKGRFTISRDNAKNTVYLQMNSLKPDDTAVYYCGAEVVAQMNYWGQGTQVTVSS
  polyreactivity (PSR sort gate): low polyreactivity

## QVQLQESGGGLVQAGGSLLSCAASGTISYYREMGWYRQAPGKERELVAGIGVGTITYYADSVKGRFTISRHNAINTVYMQMNSLKPEDTAVYYCAAHIDGNDSHAYWGQGTQVTVSS
  polyreactivity (PSR sort gate): low polyreactivity

## QVQLVESGGGLVQAGGSLRLSCAASGSIFTYNVMGWYRHAPGKERELVAAIRTRGDRTYYADSVKGRFTISRDNAKNTVYLQMNSLKPDDTAVYYCAAAGSYYSHEYWGQGTQVTVSS
  polyreactivity (PSR sort gate): high polyreactivity

## QVQLVESGGGLVQAGGSLRLSCAASGRIFIIYAMGWYRQAPGKEREFVAAITSSGGSTYYADSVKGRFTISRDNAKNTVYLQMYSLKPEDTAVYYCNKVTRYYREYHRDSQYGYWGQGTQVTVSS
  polyreactivity (PSR sort gate): high polyreactivity

## QVQLVESGGGLVQAGGSLRLSCAASGLILSSNAMGWYRQAPGKERELVATINRSGASTYYADSVKGRFTISRDNAKNTVYLQMNSLKPEDTAVYYCNTATSRAYRYDYWGQGSQVTVSS
  polyreactivity (PSR sort gate): low polyreactivity

## QVQLVESGGGLVQAGGSLRLSCAASGRTFLINAMGWYRQAPGKERELVAAITQSGGSTYYADSVKGRFTISRDNAKNTVYLQMNSLKPEDTAVYYCAADVPGVYPYDYWGQGTQVTVSS
  polyreactivity (PSR sort gate): low polyreactivity

## QVQLVESGGGLVQAGGSLRLSCAASGRIFVKNTMGLYRQAPGKERELVAAISWYGGSTYYADSVKGRFTISRDNAMNTVYLQMNSLKPEDTAFYYCAAATWQWPWYDYWGQGTKVTVSS
  polyreactivity (PSR sort gate): high polyreactivity

## QVQLVESGGGLVQAGGSLRLSCAASGLTFTNYAMGWYRQAPGKELELVAAISSSGSDTYYADSVKGRFTISRDNAKNTVYLQMNSLKPEDTAVYYCAAVLTALSPDFEYEYWGQGTQVTVSS
  polyreactivity (PSR sort gate): low polyreactivity

## QVQLVESGGGLVQAGGSLRLSCAASGSTFGVNAMGWYRQAPGKERELVAAISWSGGSTYYADSVKGRFTISRDNAKNTVYLQMNSLKPEDTAVYYCAADFDYGIWGRYEYWGQGTQVTVSS
  polyreactivity (PSR sort gate): high polyreactivity

## QVQLVESGGGLVQAGGRLRLSCAASGITFYENAMGWYRQAPGKERELVAAISYSGGNTYPDSVKGRFTISRDNEKNTVYLQMNSLKPEDTAVYYCNADYAGWGEYDYCGQGTQVTVSS
  polyreactivity (PSR sort gate): low polyreactivity

## QVQLVESGGGLVQAGGSLRLICAASGFISNINVMGWYRQAPGKERELVAAITYIDGSTFYADSVKGRFTISRDNAKNTVYLQMNSLKPEDTAVYYCAKTRVRGSEFGYWGQGTQVTVSS
  polyreactivity (PSR sort gate): low polyreactivity

## QVQLVESGGGLVQAGGSLRLSCAASGRIFGYNAMGWYIQAPGKERELVAVITYSGGSTYYADSVKGRFTISRDNAKNTVYLQMNSLKPEDTAVYYCNARPIDRYSGSGKQWPDYNYWGQGTQVTVSS
  polyreactivity (PSR sort gate): low polyreactivity

## QVQLVESGGGLVQAGGSLRLSCAASGSTFFKYAMGWYRPAPRKERELVAAISYSGGSTYYADSVKGRFTISRDNAKNTVYLQMNSLKPEDTAVYYCAARVQNRYRPYYYWGQGTQVTVSS
  polyreactivity (PSR sort gate): high polyreactivity

## QVQLVESGGGLVQAGGSLRLSCAASGFIFPWYAMGWYRQAPGKERELVAAISWSGGSTYYADSVKWRFTISRDNAKNTVYLQMNSLKPEDTAVYYCNDLYGRPGYDYWGQGTQVTVSS
  polyreactivity (PSR sort gate): low polyreactivity

## QVQLVESGGGLVQAGGSLRLSCAASGRTFVNNAMGRYREAPGKERELVAAITTSAGSTYYADSVKGRFTISRDNAKNTVYLQMNSLNPEDTAVYYCAAVVWKKRYFDLEYWGQGTQVTVSS
  polyreactivity (PSR sort gate): low polyreactivity

## QVQLVQSGGGLVQAGGSLRLSCAASGRTFGRYAMGWYRQAPGKERELVAAINRGGSTKYADSVQGRFTISRDNAKNTVYLQMNSLKPEDTAVYYCAKDRHPALLYDYWGQGTEVTVSS
  polyreactivity (PSR sort gate): low polyreactivity

## QVQLVESVGGLVQAGGSLRLSCAASGSTFKYYAMGWYRPAPGKERELVAAITYSGGRTYYADSVKGRFTISRDNAKNTVYLQMNSLNPEDTAGYYCAARRGREDDYWGQGTQVTVSS
  polyreactivity (PSR sort gate): low polyreactivity

## QVQLVESGGGLVQAGGSLRLSCAASGRIFVFNAMGWYRQAPGKERELVATIDRGGSTNYADSVKGRFTISRDNAKNTVYLQMNSLKPEDTAVYYCAAGVVGKRSRTGYYWGQGTQVTVSS
  polyreactivity (PSR sort gate): low polyreactivity

## QVQLVESGGGLVQAGGSLRLSCAASGLIFSYYVMGWYRPAPGKERELVAAINRSGGSTYYADSVKGRFTISRDNAKNTVYLQMNSLKPEDTAVYYCAAEKLGTNFEYWGQGTQVTVSS
  polyreactivity (PSR sort gate): high polyreactivity

## QVQLVESGGGLVQAGGSLRLSCAASGSTFNNYAMGWYSQAPGKERELVAAITRGGGSTHYADSVKGRFTISRDNAKKTVYFQMNCRKPEDTAVYYCAVAGFDRGQYVRYYYWGQGTQVTVSS
  polyreactivity (PSR sort gate): low polyreactivity

## QVQLVESGGGLVQAGGSLRLSCAASGTTFYPNAMGWYRQAPGKERELVAAISWSGGRTYYADSVKGRFTISRDNAKNTVYLQMNSLKPEDTAVYYCNRYHRTSWRAKYDYWGQGTQVTVSS
  polyreactivity (PSR sort gate): high polyreactivity

## QVQLVESGGGLVQAGGSLRLSCAASGRSFDRYAMGWYRQAPGKERELVAGITASGGSTYYADSVKGRFTISRDNAKNTVYLQMNSLKPEDTAVYYCAVVYGYRYYYWGQGTQVTVSS
  polyreactivity (PSR sort gate): high polyreactivity

## QVQLVESGGGLVQAGGSLRLSCAASGLTFRPNAMGWYRQAPGKERELVAAISWSGRTYYADSVKGRFTISRDNAKNTVYLQMNILKPEDTAVYYCAARGYSDRYGYWGQGTQVTVSS
  polyreactivity (PSR sort gate): high polyreactivity

## QVQLVESGGGLDLAGGSLRLSCAASGRTCGYNAMGWYRQAPGKERELVATISWGGGSTYYADSVKGRFTISRDNAKNSVYLQMNSLKPEDTAVYYCNKVHYGRRHSYSGAIYGEDYWGQGTQVTVSS
  polyreactivity (PSR sort gate): high polyreactivity

## QVQLVESGGGLLKAGRSLRLSCAASGRIFGYYAMGWYRQAPGKERELVAAISTGGGRTYYADSVKGRFTISRDNAKNTVYLQMNSLKPEDTAVYYCAARLKWGWPTYDYWGQGTQVTVSS
  polyreactivity (PSR sort gate): high polyreactivity

## QVQLVESGGGLVQAGGSLRLRCAASGSIFESNAMGWYRQAPGKETEFVAAIDQNDGSTYYADSVKGRFTISRDNAKNTVYLQMNSLKPDDTAVYYCAARCYVYRLTWGDYWGQGTQVTVSS
  polyreactivity (PSR sort gate): low polyreactivity

## QVQLVESGGGLVQAGGSLSLSCAASGSTFSRYGMGGYRQAPGKERELVAAISYSGGGTYYADSVKGRFTISRDNAKNTVYLQMNSQKREDNAVYYCNVEYPKRANLSDYWGQGTQVTVSS
  polyreactivity (PSR sort gate): high polyreactivity

## QVHLVESGGGLVQAGGSLRLSCAASGRTFGYYAMGWYRQAPGKERELVATISGRAGRTYYADSVKGRFTISRDNAKNTVYLQMNSLKPEDTAVYYCATRSLQKYYWIANSYGYWGHGTQVTVSS
  polyreactivity (PSR sort gate): high polyreactivity

## QVQLVESGGGLVQAGGSLRLSCAASGSIFGRYAMGWYRQAPGKERELVAAITFSGASTYYADSVKGRFTISRDNAKNTVYLQMNSLKPEDTAVYYCAADGGTIEGDYWGQGTQVTVSS
  polyreactivity (PSR sort gate): low polyreactivity

## QVQLEESGGGLVQAGGSLRLSCAASGSIFEYYAMGWYRPAPGKERELVAAISSGGPTYYADSVKGRFTISRDNAKNTVYLQMNSLKPEDTAVYYCNADLWYPDYAYWGQGTQLTVSS
  polyreactivity (PSR sort gate): low polyreactivity

## QDQLVESGGGLVQAGGTLRLSCDASGSTFFRNAMGWYRQPPGKEREMVADISASGGSTYYADSVKGRFTISRDNAKNTVYLQMNSLKPEDNADYYCNALYIYFYNYLTMDYWGQGSQVTVSS
  polyreactivity (PSR sort gate): low polyreactivity

## QVQLVESGGGLVQAGGSLRLTCAASGSIFDRNAMGWYRQAPGTERELVAAITYRSGGTYYADSVKGRFTISRDNAKNTVYLQMNSLKPEDTSVYYCNKGYRRYKGYDYWGQGTQVTVSS
  polyreactivity (PSR sort gate): high polyreactivity

## QFQLVESGGGLVQSGGSLRLSCAASGFIFRSYAMGWYRQAPVKERELVAVISRRGVNTHYADSVKGRFTISRDNAKNTVYLQMNSLKPEDTAVYYCAKGLTAVGDYWGQGTQVTVSS
  polyreactivity (PSR sort gate): high polyreactivity

## QVQLVESGVGLFQAGGSLRLSCAPSGSTFIGYAMEWYRQAPGKERELVAAISWSGGRTYYADSVKGRFTISRDNAKNTVYLQMISLKPEDTAVYYCNTVPYRISVQFNYWGQGTQVTLSS
  polyreactivity (PSR sort gate): high polyreactivity

## QVQLVESGGGLVQAGGSLRLSCAASGRIFVYNAMGWYRQAPGKERELVAAISRSGSSTYYADSVKGRFTISRDNAKNTVYLQMNSLKPEDTAVYYCNAVLSRWTQSGKYRYRYFGFEYWGQGTQVTVSS
  polyreactivity (PSR sort gate): high polyreactivity

## QVQLVESGGGLVQAGGSLRLSCAASGSTFPVYAMGWYRQAPGKERELVASLSSGAETNYADSVKGRFTISRDNAKNTVYLQLISLTPEDTAVYYCAATVPLRTIRPRSYGYWGQGTQVTVSS
  polyreactivity (PSR sort gate): low polyreactivity

— the nanobody polyreactivity screen of Harvey et al. (2022)
